Holding throughout (format): biochemical
Data set [1] deals with herring sperm genomic DNA. Description: Nucleolytic activity of PPR, HL-SAN, Benzonase nucleases in PBS and TBS buffers. The note with it: PBS, TBS and TBS with 500 mM NaCl; 6° C., 22° C. and 37° C. As for the experimental part:
FIG. 8—showing the comparison of values of the PPR, HL-SAN and Benzonase® nucleases' nucleolytic activities in buffers with similar physiological salt concentration (PBS and TBS) with the addition of 500 mM NaCl, commonly used in the methodology of recombinant protein purification.
(§1) In order to determine PPR nuclease specific activity serial dilutions of the enzyme are incubated in a reaction buffer containing 20 mM Tris-HCl (pH 8.0), 20 mM MgCh and 100 pg of herring sperm genomic DNA of 300 m ? volume at 37° C. for 30 min. The reaction is stopped by adding 300 m ? 4% solution of perchloric acid to 2% final concentration and sample incubation on ice for 60 min. As a control, 100 pg DNA is incubated without the addition of nuclease. Afterwards, the samples are centrifuged for 10 minutes until separation of the precipitate of non-degraded DNA. The content of free nucleotides and oligonucleotide fragments smaller than 10 bp is determined in supernatant by measuring absorbance at 260 nm wavelength. 1 U nuclease activity is determined as enzyme quantity causing increase of absorbance in the studied sample at 260 nm wavelength of 1.0 within 30 minutes of reaction at 37° C. […]

The test system of data set [2] is pUC19 plasmid DNA. Description: Effects of potential inhibitors (salts, urea, imidazole) on PPR nucleolytic activity. As for the experimental part:
(§2) In order to determine PPR nuclease nucleolytic activity serial dilutions of the enzyme are incubated in a reaction buffer containing 20 mM Tris-HCl (pH 8.0), 20 mM MgCb and 1 pg pUC19 plasmid DNA of 20 m ? volume for 10 min. The reaction is stopped by adding 5 m ? 25 mM DTT solution to a final concentration of 5 mM and the sample is heated to 55° C. for 10 min. As a control, 1 pg of pUC19 plasmid DNA is incubated without the addition of nuclease. Subsequently, the samples are loaded onto a 1% agarose gel and DNA separation is performed in gel at 130 voltage for 40 min. The remaining, nondegraded DNA in gel is stained with ethidium bromide and documented by taking a photography of the gel. 1 U activity is determined as the enzyme quantity essential for total degradation of 1 pg of pUC19 plasmid DNA in 10 min. at 37° C.
(§3) In order to determine PPR nuclease specific activity serial dilutions of the enzyme are incubated in a reaction buffer containing 20 mM Tris-HCl (pH 8.0), 20 mM MgCh and 100 pg of herring sperm genomic DNA of 300 m ? volume at 37° C. for 30 min. The reaction is stopped by adding 300 m ? 4% solution of perchloric acid to 2% final concentration and sample incubation on ice for 60 min. As a control, 100 pg DNA is incubated without the addition of nuclease. Afterwards, the samples are centrifuged for 10 minutes until separation of the precipitate of non-degraded DNA. The content of free nucleotides and oligonucleotide fragments smaller than 10 bp is determined in supernatant by measuring absorbance at 260 nm wavelength. 1 U nuclease activity is determined as enzyme quantity causing increase of absorbance in the studied sample at 260 nm wavelength of 1.0 within 30 minutes of reaction at 37° C.
To determine the scope of enzyme tolerance to popular ion components used in the preparation of recombinant proteins, present in the reaction buffer, a nucleolytic reaction is performed as described in Example 4 in solutions of various amounts of individual potential inhibitors: NaCl, urea, ammonium sulphate, imidazole. The PPR nuclease retains high nucleolytic activity in the presence of increased concentrations of tested substances, as shown in Table 1.

Data set [3] deals with herring sperm genomic DNA. Description: Nucleolytic activity of PPR, HL-SAN, Benzonase nucleases in DMEM medium. As for the experimental part:
FIG. 7—showing the comparison of values of the PPR, HL-SAN and Benzonase® nucleases' nucleolytic activities in DMEM medium, commonly used for mammalian in vitro cell culture, in which recombinant proteins, virus vectors and other biological therapeutics are produced.
as §3
Determination of the nucleolytic activity of PPR, HL-SAN and Benzonase® nucleases are performed as described in Example 4 at various temperatures: 6° C., 22° C. and 37° C. but instead of a reaction buffer DMEM medium (commonly used in cultures of mammalian cells, e.g. CHO, HEK, for the production of recombinant proteins and virus vectors) is used. […] At 37° C. […] The activity for every enzyme in conditions recommended by the manufacturer was assumed as 100% activity.

For data set [4], the system named is herring sperm genomic DNA. The data set is described as follows: Nucleolytic (specific) activity of PPR nuclease, modified Kunitz's test: effect of pH, temperature and Mg2+. As for the experimental part: FIG. 2—showing pH influence on PPR nucleolytic activity depending on NaCl salt concentration. Measurement using modificated Kunitz's test, conditions: 20 mM MgCh, temperature of 22° C.
FIG. 3—showing temperature and high salts (500 mM NaCl+100 mM MgCL) influence on PPR nucleolytic activity. Measurement using modificated Kunitz's test.
FIG. 4—showing influence of Mg^2, ions on PPR nucleolytic activity in selected pH and temperature conditions. Maximum PPR activity is obtained at 50-150 mM concentration at 37° C. in a pH 8.0 buffer.
as §3
In order to determine optimal pH for enzyme nucleolytic activity reaction is conducted as described in Example 4. The solutions of pH 6.0-10.0 with 1 U enzyme in reaction mixtures containing 0, 250, 500 mM NaCl, respectively.
The determination of the optimal temperature for enzyme nucleolytic activity reaction is performed as described in Example 4 at various temperatures from 6° C. to 45° C. with 1 U enzyme in the reaction mixture containing 50 mM Tris, pH 8.0 and variable concentrations of MgCh (5 mM and 100 mM). […] It needs to be highlighted that in these conditions 100% of standard activity may be obtained in refrigerated conditions at 6° C., by applying the relevant salt concentration: NaCl (500 mM) and MgCh (100 mM).
To determine the effects of Mg^2+ ion concentration on PPR nucleolytic activity reaction is performed as described in Example 4 in solutions of varied content of Mg^2+ ions; 5 mM to 200 mM with 1 U enzyme in the reaction mixture. […] In all observed ranges of MgCh (5-200 mM) PPR concentrations show high specific activity.

Data set [5] deals with pUC19 plasmid DNA. The data set is described as follows: Thermal inactivation of PPR enzymatic activity in the presence of DTT, plasmid DNA degradation on agarose gel. The note with it: incubation for 15 minutes in the presence of 1-5 mM DTT. As for the experimental part:
FIG. 5—showing PPR inactivation in various temperature conditions in the presence of 5 mM DTT. Complete PPR inactivation is obtained at 52° C.
as §2
To determine the parameters of PPR nuclease inactivation series of 0.2 ml test probes for PCR are prepared containing 100 U PPR in a 50 m ? reaction buffer containing 5 mM DTT, as described in Example 4A, excluding pUCIO plasmid DNA. Afterwards, the probes are incubated for 15 minutes at relevant temperatures and then for 5 minutes on ice. […] The degree of plasmid DNA degradation in the trials is analyzed on an agarose gel.

In data set [6] the test system is herring sperm genomic DNA. The data set is described as follows: Nucleolytic activity of PPR, HL-SAN, Benzonase nucleases in buffers of varied salt concentration and pH. As for the experimental part:
FIG. 6—showing the comparison of nucleolytic activity values of PPR, HL-SAN and Benzonase® nucleases in buffers of various NaCl concentrations (0, 250, 500 mM), in pH 7.0, 8.0, 9.0, respectively. The remaining reaction conditions are as follows: temperature 22° C., 50 mM Tris, 20 mM MgCk (5 mM MgCk used for Benzonase®). […] The advantage of PPR over the HL-SAN nuclease, whose characteristics are the most similar, increases in correlation with decreasing pH (7.0-8.0).
as §1

Here are results for one molecule from patent US20230287369A1, “A NEW, NON-SPECIFIC THERMOLABILE NUCLEASE ACTIVE AT LOW TEMPERATURE, IN WIDE PH RANGE AND HIGH CONCENTRATION IN SALTS” (Blirt S.A., priority 2019, published 2023).

B1: PPR nuclease: non-specific nuclease that is the subject matter of the invention of SEQ ID NO: 2; thermolabile, recombinant, produced in E. coli (protein)
chain: MKYLLPTAAAGLLLLAAQPAMAASMEHHHHHHGSENLYFQSAPPSSFSKAKRLAVEIYQDHPTSFYCGCAITWQGKKGLPDLASCGYEVRKQEKRANRIEWEHVVPAENFGRAFVEWREGHPQCVNSKGKAYKGRSCATKMNPTYRSMQADLHNLTPAVGEVNGDRSNYAFLPWNGNNGAFYGQCDMKIDFKNRRADPPEQSRGAIARTYLYMNQEYKMALSSQQRQLMEAWNRQYPISTWECERDRRIANIQDNHNSFVLQACKKAGY
Consider B1, for which the “nucleolytic activity compared with the other tested enzymes” value was “highest nucleolytic activity of all tested enzymes” in data set [1] and “highest nucleolytic activity of all tested enzymes” in data set [3] (all tested temperatures (6° C., 22° C., 37° C.)). For the same molecule, the Non-inhibiting concentration with pUC19 plasmid DNA [2] (Ammonium sulphate) was in the range of 0 to 200 mM; in the data set with pUC19 plasmid DNA [2] (Imidazole) it was 0 to 400 mM; with pUC19 plasmid DNA [2] (NaCl/KCl) it was 0 to 1400 mM; in the data set with pUC19 plasmid DNA [2] (Urea), 0 to 6000 mM. Further, the “nucleolytic activity relative to Benzonase nuclease” value in data set [3] (37° C.) is given as “six times more active”. Moreover, the “nucleolytic activity relative to HL-SAN and Benzonase” value in data set [3] (refrigerated conditions (6° C.) and ambient temperature (22° C.)) was “approx three times more active”. Also, in data set [4] (500 mM NaCl, tested pH 6.0-10.0 at 0, 250, 500 mM NaCl, 20 mM MgCl2, 22° C., 1 U enzyme), the “pH of highest nucleolytic activity” value was 8.0. Also, in data set [4] (6° C. to 45° C., 50 mM Tris, pH 8.0), the “nucleolytic activity over tested temperature range” value is given as “maintains nucleolytic activity in the whole range of the tested temperatures”. Besides, the “MgCl2 concentration range with high specific activity / enzyme active” value in data set [4] (MgCl2) was 5 to 200 mM. Also, in data set [4] (NaCl (500 mM) and MgCl2 (100 mM), 50 mM Tris, pH 8.0, tested 6° C. to 45° C.), the “temperature of highest nucleolytic activity” value worked out at 37 °C. In addition, the “Mg2+ concentration of highest nucleolytic activity” value in data set [4] (pH 6.5) came out at 20 mM; in data set [4] (pH 8.0) it was 150 mM. The “optimum Mg2+ concentration range for nucleolytic activity” value in data set [4] (pH 6.5 buffer, ambient temperature (22° C.)) lay in the range of 20 to 50 mM; in data set [4] (pH 8.0 buffer, 37° C.) it was 50 to 150 mM. In addition, in data set [4] (refrigerated conditions at 6° C., NaCl (500 mM) and MgCl2 (100 mM)), the “nucleolytic activity relative to standard activity” value is listed as 100 % of standard activity. In addition, the “temperature of irreversible inactivation” value in the data set with pUC19 plasmid DNA [5] is 52 °C. The “nucleolytic activity compared with the other tested nucleases” value in data set [6] (250 and 500 mM NaCl, pH 7.0, 8.0 and 9.0, 22° C., 50 mM Tris, 20 mM MgCl2) is given as “highest nucleolytic activity of all tested nucleases”. The “nucleolytic activity compared with HL-SAN and Benzonase” value in data set [6] (lower pH (7.0, 8.0) and ambient temperature (22° C.)) is reported as “significantly more active”.
